Source: paper PMC6499398
Like-named read-outs stand apart in the source and are kept apart here.

Experiments:
Experiment in all cases: EMSA
TDP43(WT) [1] = biological target: T1, TDP43(WT) (UniProt Q13148 1-414)
TDP43(WT) [2] = biological target: T1, TDP43(WT); remark: listed apart in the source
TDP43(WT) [3] = biological target: T1, TDP43(WT); remark: listed apart in the source

T1 sequence (Q13148 whole entry): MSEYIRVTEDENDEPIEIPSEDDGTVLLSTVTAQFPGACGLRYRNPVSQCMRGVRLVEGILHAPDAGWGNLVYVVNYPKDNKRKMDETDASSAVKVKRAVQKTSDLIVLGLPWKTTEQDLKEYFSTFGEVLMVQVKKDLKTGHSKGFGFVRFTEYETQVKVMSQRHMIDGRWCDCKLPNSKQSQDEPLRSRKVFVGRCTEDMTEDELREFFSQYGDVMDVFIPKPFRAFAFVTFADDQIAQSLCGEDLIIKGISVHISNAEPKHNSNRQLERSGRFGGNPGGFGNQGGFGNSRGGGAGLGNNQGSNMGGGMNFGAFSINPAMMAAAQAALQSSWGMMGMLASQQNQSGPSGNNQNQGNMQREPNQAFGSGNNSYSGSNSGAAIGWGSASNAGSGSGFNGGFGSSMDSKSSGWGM

GCGCGCGCGCGCGCGCGCGCGCGC (ssDNA) [(GC)12]: no binding (TDP43(WT) [1]).

ATATATATATATATATATATATAT (ssDNA) [(AT)12]: no binding (TDP43(WT) [1]).

TGTGTGTGTGTGTGTGTGTGTGTG (ssDNA) [(TG)12] showed a Kd (TDP43(WT) [2]) of 7.4 ± 0.34 nM.

Binder UGUGUGUGUGUGUGUGUGUGUGUG (ssRNA) [(UG)12] has a Kd (TDP43(WT) [3]) of 0.35 ± 0.1 nM.
